Experimental data reported in the supplement of paper PMC5998384.

Assays:
[1] = system: HeLa Kyoto; assay: melting temperature (median over replicates), in situ; higher = more thermally stable
[2] = system: HeLa Kyoto; assay: solubility change mitosis vs G1/S (difference of NP-40 vs SDS log2 ratios) (log2 ratio difference); higher = more soluble in mitosis
[3] = system: HeLa Kyoto; assay: solubility in G1/S (NP-40 vs SDS abundance) (log2 ratio); higher = more soluble; conditions: cell cycle stage: G1/S
[4] = system: HeLa Kyoto; assay: thermal stability score vs G1/S (z-score of summed log2 fold changes over temperatures); higher = more thermally stable than in G1/S
[5] = cell cycle stage: early G1 (4.5 h after nocodazole release)
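Wherever melting temperature (median over replicates), in situ is given: HeLa Kyoto cells synchronized by double thymidine or nocodazole block, proteins quantified by TMT10plex mass spectrometry, three independent biological replicates.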
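Wherever solubility change mitosis vs G1/S (difference of NP-40 vs SDS log2 ratios) is given: synchronized HeLa Kyoto cells (double thymidine block for G1/S, nocodazole release for mitosis), protein amounts in NP-40 versus SDS lysates quantified by mass spectrometry, three biological replicates.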
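Wherever solubility in G1/S (NP-40 vs SDS abundance) is given: HeLa Kyoto cells arrested at G1/S by double thymidine block, proteins quantified by TMT10plex mass spectrometry in mild NP-40 versus SDS extracts, three biological replicates.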
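Wherever thermal stability score vs G1/S (z-score of summed log2 fold changes over temperatures) is given: synchronized HeLa Kyoto cells, proteins quantified by TMT10plex mass spectrometry, three biological replicates, mitosis taken 0.5 h after nocodazole release, G1/S directly after double thymidine block.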

MAARVLIIGSGGREHTLAWKLAQSHHVKQVLVAPGNAGTACSEKISNTAISISDHTALAQFCKEKKIEFVVVGPEAPLAAGIVGNLRSAGVQCFGPTAEAAQLESSKRFAKEFMDRHGIPTAQWKAFTKPEEACSFILSADFPALVVKASGLAAGKGVIVAKSKEEACKAVQEIMQEKAFGAAGETIVIEELLDGEEVSCLCFTDGKTVAPMPPAQDHKRLLEGDGGPNTGGMGAYCPAPQVSNDLLLKIKDTVLQRTVDGMQQEGTPYTGILYAGIMLTKNGPKVLEFNCRFGDPECQVILPLLKSDLYEVIQSTLDGLLCTSLPVWLENHTALTVVMASKGYPGDYTKGVEITGFPEAQALGLEVFHAGTALKNGKVVTHGGRVLAVTAIRENLISALEEAKKGLAAIKFEGAIYRKDVGFRAIAFLQQPRSLTYKESGVDIAAGNMLVKKIQPLAKATSRSGCKVDLGGFAGLFDLKAAGFKDPLLASGTDGVGTKLKIAQLCNKHDTIGQDLVAMCVNDILAQGAEPLFFLDYFSCGKLDLSVTEAVVAGIAKACGKAGCALLGGETAEMPDMYPPGEYDLAGFAVGAMERDQKLPHLERITEGDVVVGIASSGLHSNGFSLVRKIVAKSSLQYSSPAPDGCGDQTLGDLLLTPTRIYSHSLLPVLRSGHVKAFAHITGGGLLENIPRVLPEKLGVDLDAQTWRIPRVFSWLQQEGHLSEEEMARTFNCGVGAVLVVSKEQTEQILRDIQQHKEEAWVIGSVVARAEGSPRVKVKNLIESMQINGSVLKNGSLTNHFSFEKKKARVAVLISGTGSNLQALIDSTREPNSSAQIDIVISNKAAVAGLDKAERAGIPTRVINHKLYKNRVEFDSAIDLVLEEFSIDIVCLAGFMRILSGPFVQKWNGKMLNIHPSLLPSFKGSNAHEQALETGVTVTGCTVHFVAEDVDAGQIILQEAVPVKRGDTVATLSERVKLAEHKIFPAALQLVASGTVQLGENGKICWVKEE [GART]
melting temperature ([1]; cell cycle stage: G1/S): 50.8 °C
melting temperature ([1]; cell cycle stage: mitosis): 51 °C
solubility change mitosis (log2) [2]: -0.137
solubility in G1/S (log2) [3]: 0.201
thermal stability score [4, 5]: 0.0198
thermal stability score ([4]; cell cycle stage: mitosis): 0.936

MAASAAAASAAAASAASGSPGPGEGSAGGEKRSTAPSAAASASASAAASSPAGGGAEALELLEHCGVCRERLRPEREPRLLPCLHSACSACLGPAAPAAANSSGDGGAAGDGTVVDCPVCKQQCFSKDIVENYFMRDSGSKAATDAQDANQCCTSCEDNAPATSYCVECSEPLCETCVEAHQRVKYTKDHTVRSTGPAKSRDGERTVYCNVHKHEPLVLFCESCDTLTCRDCQLNAHKDHQYQFLEDAVRNQRKLLASLVKRLGDKHATLQKSTKEVRSSIRQVSDVQKRVQVDVKMAILQIMKELNKRGRVLVNDAQKVTEGQQERLERQHWTMTKIQKHQEHILRFASWALESDNNTALLLSKKLIYFQLHRALKMIVDPVEPHGEMKFQWDLNAWTKSAEAFGKIVAERPGTNSTGPAPMAPPRAPGPLSKQGSGSSQPMEVQEGYGFGSGDDPYSSAEPHVSGVKRSRSGEGEVSGLMRKVPRVSLERLDLDLTADSQPPVFKVFPGSTTEDYNLIVIERGAAAAATGQPGTAPAGTPGAPPLAGMAIVKEEETEAAIGAPPTATEGPETKPVLMALAEGPGAEGPRLASPSGSTSSGLEVVAPEGTSAPGGGPGTLDDSATICRVCQKPGDLVMCNQCEFCFHLDCHLPALQDVPGEEWSCSLCHVLPDLKEEDGSLSLDGADSTGVVAKLSPANQRKCERVLLALFCHEPCRPLHQLATDSTFSLDQPGGTLDLTLIRARLQEKLSPPYSSPQEFAQDVGRMFKQFNKLTEDKADVQSIIGLQRFFETRMNEAFGDTKFSAVLVEPPPMSLPGAGLSSQELSGGPGDGP [TRIM28]
melting temperature ([1]; cell cycle stage: G1/S): 48.2 °C
melting temperature ([1]; cell cycle stage: mitosis): 49.2 °C
solubility change mitosis (log2) [2]: -0.0696
solubility in G1/S (log2) [3]: 0.119
thermal stability score [4, 5]: 1.33
thermal stability score ([4]; cell cycle stage: mitosis): 6.59

MAASAGAGAVIAAPDSRRWLWSVLAAALGLLTAGVSALEVYTPKEIFVANGTQGKLTCKFKSTSTTGGLTSVSWSFQPEGADTTVSFFHYSQGQVYLGNYPPFKDRISWAGDLDKKDASINIENMQFIHNGTYICDVKNPPDIVVQPGHIRLYVVEKENLPVFPVWVVVGIVTAVVLGLTLLISMILAVLYRRKNSKRDYTGCSTSESLSPVKQAPRKSPSDTEGLVKSLPSGSHQGPVIYAQLDHSGGHHSDKINKSESVVYADIRKN [MPZL1]
melting temperature ([1]; cell cycle stage: G1/S): 57.8 °C
melting temperature ([1]; cell cycle stage: mitosis): 58.1 °C
solubility change mitosis (log2) [2]: -0.289
solubility in G1/S (log2) [3]: 0.534
thermal stability score [4, 5]: -1.73
thermal stability score ([4]; cell cycle stage: mitosis): -3.55

MAASAKRKQEEKHLKMLRDMTGLPHNRKCFDCDQRGPTYVNMTVGSFVCTSCSGSLRGLNPPHRVKSISMTTFTQQEIEFLQKHGNEVCKQIWLGLFDDRSSAIPDFRDPQKVKEFLQEKYEKKRWYVPPEQAKVVASVHASISGSSASSTSSTPEVKPLKSLLGDSAPTLHLNKGTPSQSPVVGRSQGQQQEKKQFDLLSDLGSDIFAAPAPQSTATANFANFAHFNSHAAQNSANADFANFDAFGQSSGSSNFGGFPTASHSPFQPQTTGGSAASVNANFAHFDNFPKSSSADFGTFNTSQSHQTASAVSKVSTNKAGLQTADKYAALANLDNIFSAGQGGDQGSGFGTTGKAPVGSVVSVPSQSSASSDKYAALAELDSVFSSAATSSNAYTSTSNASSNVFGTVPVVASAQTQPASSSVPAPFGATPSTNPFVAAAGPSVASSTNPFQTNARGATAATFGTASMSMPTGFGTPAPYSLPTSFSGSFQQPAFPAQAAFPQQTAFSQQPNGAGFAAFGQTKPVVTPFGQVAAAGVSSNPFMTGAPTGQFPTGSSSTNPFL [AGFG1]
melting temperature ([1]; cell cycle stage: G1/S): 50.9 °C
melting temperature ([1]; cell cycle stage: mitosis): 52.1 °C
solubility change mitosis (log2) [2]: -0.0484
solubility in G1/S (log2) [3]: 0.0305
thermal stability score [4, 5]: 0.14
thermal stability score ([4]; cell cycle stage: mitosis): -0.191
